Source: patent US20020147326A1, “Hexameric fusion proteins and uses therefor” (SmithKline Beecham Corporation, priority 1996, published 2002)
Entries after “also recorded” stand apart in the source; their conditions may differ.

Columns and labels:
[1] = target: T1, biotinylated CD80-Igαtp binding to immobilized CD28-Ig (Homo sapiens, UniProt P10747); test: Competition ELISA of biotinylated CD80-Igαtp binding to immobilized CD28-Ig; conditions: competitor added simultaneously; wells coated with CD28-Ig
T1 construct: native leader and extracellular domain peptide of CD28 and CD80 were grafted onto a human IgG1 heavy chain Fc region; human IgG1 Fc (hinge/CH2/CH3); made in house; host or cells: CHO cells
Procedure: The wells of 96 well microtiter plates (Immunlon 4, Dynatech Laboratories) were coated with CD28-Ig (1, 2, or4 μg/ml) in 100 μl/well of 0.1 M sodium bicarbonate, pH 9.4 and incubated overnite @4° C. The wells were washed with PBS (phosphate buffered saline) and blocked with 0.5% gelatin in PBS for 1 hour. Following an additional PBS wash, biotinylated CD80-Igαtp was serially diluted in PBS containing 1 mg/ml BSA, 0.05% Tween directly in the wells in a final volume of 0.1 ml and incubated for 1 hour. The wells were washed with PBS and bound CD80-Igαtp protein was measured by the addition of 0.1 ml of strepavidin-HRP (streptavidin conjugated with horseradish peroxidase (Southern Biotech)) at a 1:2000 dilution for 1 hour, followed by washing and color development with 100 μl ABTS substrate (Kierkegaard and Perry Laboratories Inc., Maryland) and measurement of absorbance at 405 nm. In some cases the color reactions were arrested by addition of 100 μl of 1% SDS prior to measurement of absorbance. In this figure, “CD28-Fc”, “CTLA4-Fc”, and “B7-FcA” denote CD28-Ig, CTLA4-Ig, and CD80-Igαtp, respectively.

[2] = test system: murine T-cell hybridoma cell lines expressing human CD28 (PCD28.1.s2.1, DCL27CD28wt.s2); test: IL-2 production by CD28 T-cell hybridomas (CTLL-2 bioassay); type: cell-based; conditions: addition of CTLA4-Ig
Text: The CD80- and CD86-Igαtp proteins were compared to the corresponding CD80 and CD86-Ig proteins to determine their ability to stimulate cells expressing human CD28 using two murine T-cell hybridoma cell lines expressing human CD28, PCD28.1.s2.1 and DCL27CD28wt.s2. The PCD28.1.s2.1 cell line was described in Example 1, part 3. The DCL27CD28wt.s2 cell line was created by transfection of the DC27 cell line [F. Pages et al., Nature, 369:327-329 (1994); F. Pages et al., J. Biol. Chem., 271(16):9403-9409 (1996)] with the same CD28 expression vector used for the PCD28.1.s2.1 cells [D. Couez et al., Molecular Immunology, 31:47-57 (1994)]. These cell lines were examined for their ability to produce IL-2 in response to activation with CD80- and CD86-Ig in comparison with the corresponding Igαtp fusion proteins. 96-well plates were coated with or without a CD3 antibody together with the CD80 and CD86 fusion proteins. This was accomplished by first incubating the plates with a previously determined suboptimal concentration of hamster […] CD3 antibody (MAb 145-2C11, Boerhinger-Mannheim Biochemicals) for two hours at room temperature (RT) or with just buffer alone, washing the plates with PBS, adding goat anti-human Ig heavy chain (GAH-IgHc, Sigma Chemical Co.) for an additional two hours at RT, washing again and coating with different concentrations of the CD80 or CD86 fusion protein for 16-18 hours at 4° C., washing again, and finally blocking for 30 min. with 0.2% BSA-PBS. T cells (1×10^5/well) were added in 150 μl medium into duplicate wells. For comparison, the soluble fusion proteins and the 248.23.2 CD28 MAb (IgM) [A. Morretta, University of Genova, Italy] were added to non-coated wells. T cells were incubated in the wells for 24 hours at 37° C., and supernatants were collected and evaluated for IL-2 levels in a standard CTLL-2 bioassay [S. M. Gillis et al., J. Immunol., 120:2027 (1978)]. Briefly, 1×10^4 IL-2 dependent CTLL-2 cells (ATCC)/well in 75 μl medium were added to an equal volume of test supernatant and incubated for 24 hours at 37° C. The cells were pulsed with 10 μl of 5 mg/ml MTT (Sigma Chemical Co.) for 4 hours, and lysed with […] 10% SDS/0.01N HCl solution for 14-16 hours. OD570 readings were converted into ng/ml of IL-2 based on a standard curve generated by treating cells with known concentrations of IL-2.
IL-2 promoter activity and IL-2 levels were measured similarly to that described in parts A and B above, except that proliferation of the reader CTLL-2 cells was measured by ^3H-thymidine incorporation.

CTLA4-Ig: binding protein/Fc construct for human CTLA4 with human IgG1 Fc
inhibition of biotinylated CD80-Igαtp binding to immobilized CD28-Ig [1]: inhibited; also recorded: blocked the binding sites on CD80-Igαtp | blockade of the response to CD80- and CD86-Igαtp [2]: complete blockade
